Source: PMC2868174

Biological target: ERK2 (UniProt P63086)
Experiment: steady-state kinetics, forward and reverse reaction
Details: reference: unphosphorylated Ets; sites T38

Ets-1 (Ets; residues 1–138) 1-138 (from UniProt P27577) p-Ets (ERK2-phosphorylated, Mono-Q purified)
other: Km: same; reference 18.0 ± 2.0
